Experimental data reported in US20130039923A1 (Novo Nordisk, published 2013).

What was measured:
[1] = molecular target: T1, hIL20 peptide 3 (residues 38-57 of SEQ ID NO. 1) (N-terminal biotin); test: SPR, biotinylated peptide on streptavidin chip (500 RU), antibody injected
T1 peptide: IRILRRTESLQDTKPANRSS

[2] = molecular target: T2, hIL20 peptide 4 (residues 48-67 of SEQ ID NO. 1) (N-terminal biotin); test: as above
T2 peptide: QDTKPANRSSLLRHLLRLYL

[3] = molecular target: T3, hIL20 peptide 2 (residues 28-47 of SEQ ID NO: 1) (N-terminal biotin); test: as above
T3 peptide: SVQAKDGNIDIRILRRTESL

[4] = molecular target: T4, hIL20 peptide 1 (residues 18-37 of SEQ ID NO: 1) (N-terminal biotin); test: as above
T4 peptide: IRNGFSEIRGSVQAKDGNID

[5] = molecular target: T5, hIL20 peptide 5 (residues 58-78 of SEQ ID NO: 1) (N-terminal biotin); test: as above
T5 peptide: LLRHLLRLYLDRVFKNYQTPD

[6] = molecular target: T6, Peptide no. 54 (Figure 8A); test: Ala-scan peptide array of hIL20 74-96 on cellulose; fluorescein-labelled antibody; fluorescence as OD
T6 construct: Ala-scan peptide on the array; also called Peptide no; L88A
T6 peptide: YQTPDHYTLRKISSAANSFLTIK

[7] = molecular target: T7, Peptide no. 50 (Figure 8A); test: as above
T7 construct: Ala-scan peptide on the array; also called Peptide no; K84A
T7 peptide: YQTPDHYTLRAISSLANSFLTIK

[8] = molecular target: T8, Peptide no. 58 (Figure 8A); test: as above
T8 construct: Ala-scan peptide on the array; also called Peptide no; L93A
T8 peptide: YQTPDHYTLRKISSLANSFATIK

[9] = molecular target: T9, Peptide no. 43 (Figure 8A); test: as above
T9 construct: Ala-scan peptide on the array; also called Peptide no; P77A
T9 peptide: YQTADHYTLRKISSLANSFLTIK

[10] = molecular target: T10, Peptide no. 46 (Figure 8A); test: as above
T10 construct: Ala-scan peptide on the array; also called Peptide no; Y80A
T10 peptide: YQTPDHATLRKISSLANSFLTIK

[11] = molecular target: T11, Peptide no. 53 (Figure 8A); test: as above
T11 construct: Ala-scan peptide on the array; also called Peptide no; S87A
T11 peptide: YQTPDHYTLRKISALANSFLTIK

[12] = molecular target: T12, Peptide no. 61 (Figure 8A); test: as above
T12 construct: Ala-scan peptide on the array; also called Peptide no; K96A
T12 peptide: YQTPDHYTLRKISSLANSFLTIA

[13] = molecular target: T13, Peptide no. 48 (Figure 8A); test: as above
T13 construct: Ala-scan peptide on the array; also called Peptide no; L82A
T13 peptide: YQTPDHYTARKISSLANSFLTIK

[14] = molecular target: T14, Peptide no. 41 (Figure 8A); test: as above
T14 construct: Ala-scan peptide on the array; also called Peptide no; Q75A
T14 peptide: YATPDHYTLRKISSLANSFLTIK

[15] = molecular target: T15, Peptide no. 59 (Figure 8A); test: as above
T15 construct: Ala-scan peptide on the array; also called Peptide no; T94A
T15 peptide: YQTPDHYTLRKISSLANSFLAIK

[16] = molecular target: T16, Peptide no. 57 (Figure 8A); test: as above
T16 construct: Ala-scan peptide on the array; also called Peptide no; F92A
T16 peptide: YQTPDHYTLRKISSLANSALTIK

[17] = molecular target: T17, Peptide no. 42 (Figure 8A); test: as above
T17 construct: Ala-scan peptide on the array; also called Peptide no; T76A
T17 peptide: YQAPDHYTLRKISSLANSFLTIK

[18] = molecular target: T18, Peptide no. 52 (Figure 8A); test: as above
T18 construct: Ala-scan peptide on the array; also called Peptide no; S86A
T18 peptide: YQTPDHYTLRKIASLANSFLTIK

[19] = molecular target: T19, Peptide no. 51 (Figure 8A); test: as above
T19 construct: Ala-scan peptide on the array; also called Peptide no; I85A
T19 peptide: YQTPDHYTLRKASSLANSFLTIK

[20] = molecular target: T20, Peptide no. 44 (Figure 8A); test: as above
T20 construct: Ala-scan peptide on the array; also called Peptide no; D78A
T20 peptide: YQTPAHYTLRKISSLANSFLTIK

[21] = molecular target: T21, Peptide no. 47 (Figure 8A); test: as above
T21 construct: Ala-scan peptide on the array; also called Peptide no; T81A
T21 peptide: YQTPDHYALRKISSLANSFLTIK

[22] = molecular target: T22, Peptide no. 60 (Figure 8A); test: as above
T22 construct: Ala-scan peptide on the array; also called Peptide no; I95A
T22 peptide: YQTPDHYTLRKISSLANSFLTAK

- binding result [1]: no binding (tested: 5 µg/ml)
- binding result [2]: no binding (tested: 5 µg/ml)
- binding result [3]: no binding (tested: 5 µg/ml)
- binding result [4]: no binding (tested: 5 µg/ml)
- binding result [5]: no binding (tested: 5 µg/ml)
- binding result [6]: binds
- binding result [7]: binds
- binding result [8]: binds
- binding result [9]: binds
- binding result [10]: binds
- binding result [11]: binds
- binding result [12]: binds
- binding result [13]: binds
- binding result [14]: binds
- binding result [15]: binds
- binding result [16]: binds
- binding result [17]: binds
- binding result [18]: binds
- binding result [19]: binds
- binding result [20]: binds
- binding result [21]: binds
- binding result [22]: binds
B1: human anti-hIL20 monoclonal antibody 15D2 (antibody, V domains shown)
VH: QVQLVQSGAEVKRPGASVKVSCKASGYTFTNDIIHWVRQAPGQRLEWMGWINAGYGNTQYSQNFQDRVSITRDTSASTAYMELISLRSEDTAVYYCAREPLWFGESSPHDYYGMDVWGQGTTVTVSS
VL: AIQLTQSPSSLSASVGDRVTITCRASQGISSALAWYQQKPGKAPKLLIYDASSLESGVPSRFSGSGSGTDFTLTISSLQPEDFATYYCQQFNSYPLTFGGGTKVEIKR
notes: also called 15D2-wt; 15D2 wild-type
